Test [1] deals with hCCR5 (human, UniProt P51681 1-352). Kind of test: cell-based or functional assay.
In test [2] the target is T1, CCR1 on peripheral blood monocytes (human, UniProt P32246 1-355).
T1 construct: whole, on cells; also called chemokine (C-C motif) receptor 1
T1 sequence (looked up): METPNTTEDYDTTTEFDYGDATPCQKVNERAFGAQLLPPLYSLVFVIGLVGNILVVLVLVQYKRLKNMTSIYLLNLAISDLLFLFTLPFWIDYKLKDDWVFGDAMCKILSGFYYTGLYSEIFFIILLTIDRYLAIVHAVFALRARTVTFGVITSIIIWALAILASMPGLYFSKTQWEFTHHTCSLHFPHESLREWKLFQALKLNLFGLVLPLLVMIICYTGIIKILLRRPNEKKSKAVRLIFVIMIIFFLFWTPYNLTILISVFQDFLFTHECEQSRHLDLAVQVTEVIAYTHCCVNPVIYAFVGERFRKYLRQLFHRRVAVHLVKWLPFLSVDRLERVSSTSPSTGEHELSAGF
Kind of test: flow cytometry, biotinylated chemokine (1 µM) detected with fluorophore-streptavidin, on blood monocytes of a sarcoidosis patient. Background: A flow cytometer gives signals particle by particle.
Method: Peripheral blood from patients and healthy controls was collected in heparin tubes. The red blood cells were lysed using Fix Buffer (Phosphate Buffer Saline (PBS) citrate with 4% paraformaldehyde) for four minutes at 37° C. and Lysing buffer (PBS with 10 mM Tris and 160 mM NH4Cl, pH 7.5) for 15 min at 37° C. The cells were washed in PBS with 2% Bovine Growth Serum, incubated with 10% human serum 15 min at room temperature (RT) and stained with cell specific antibodies together with biotinylated chemokine (1 μM) or the corresponding chemokine receptor antibody at 4° C. for 30 min (Table 1). The biotinylated chemokine was detected via the interaction between biotin and a fluorophore conjugated Streptavidin. The samples were analysed by flow cytometry on a FACS Canto flow cytometer with the FACSDiva software (BD Biosciences).

Bridge positions count the residues as written; N and C are the ends. * marks the point of attachment. Biotin = O=C1N[C@H]2[C@H](CS[C@H]2CCCCC(=O)*)N1

Chain of hCCR5 (P51681 whole entry): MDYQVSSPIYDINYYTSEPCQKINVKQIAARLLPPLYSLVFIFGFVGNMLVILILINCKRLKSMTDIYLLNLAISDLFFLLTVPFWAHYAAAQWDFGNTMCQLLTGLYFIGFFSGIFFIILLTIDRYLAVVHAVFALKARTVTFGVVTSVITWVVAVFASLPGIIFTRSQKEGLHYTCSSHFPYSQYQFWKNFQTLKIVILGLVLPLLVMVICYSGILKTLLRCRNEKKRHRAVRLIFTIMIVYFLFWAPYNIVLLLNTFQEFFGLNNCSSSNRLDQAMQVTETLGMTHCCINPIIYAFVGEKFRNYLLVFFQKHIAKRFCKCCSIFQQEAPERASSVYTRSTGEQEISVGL

B1: biotinRANTES (CCL5), RANTES derivatised at Lys(67) with Biotin (ligand)
chain: H-SPYSSDTTPCCFAYIARPLPRAHIKEYFYTSGKCSNPAVVFVTRKNRQVCANPEKKWVREYINSLEK(Biotin)S-OH
modifications: disulfide 10-34, 11-50
notes: Residues 1-68 of mature human RANTES; also called biotinylated RANTES; bRANTES
In the case of B1, the “EC50, agonist activity in an Aequorin assay” value in test [1] was found to be 0.5 nM. The binding result in test [2] is “binds”.

The record behind these values is US20180038858A1 (published 2018).
